# Laboratory results: US6022955A, “Fatty acid -- pulmonary surfactant conjugates” (Abbott Laboratories, priority 1991, dated 2000)
# Ends that are not written are not given here.
# B1: SPB (1-78): synthetic full length SP-B peptide, sequence based on natural SP-B (peptide, UniProt P07988 201-279, looked up)
# Pulmonary …: FPIPLPYCWLCRALIKRIQAMIPKGALAVAVAQVCRVVPLVAGGICQCLAERYSVILLDTLLGRMLPQLVCRLVLRCSM
# modifications: Pulmonary surfactant-associated protein B
# Tests used:
# Type in all cases: physicochemical
# [1] = Modified Wilhelmy surface balance (Langmuir trough): dynamic surface tension vs compressed surface area; conditions: 37° C.; for Equilibrum (equilibrium adsorption value): after a three (3) minute spreading time, total peptide 0.5 mg/ml; for Wilhelmy-Langmuir Trough Max (maximum dynamic surface tension) / Wilhelmy-Langmuir Trough Min (minimum dynamic surface tension): peptide/lipid admixture, total peptide 0.5 mg/ml (2%; two peptides 0.25 mg/ml each), 675 μg phospholipid, seven compression-expansion cycles, average of 3 runs
# Text: The dynamic surface tension lowering properties of the peptide/lipid admixtures were studied using a modified Wilhelmy Surface Balance (Langmuir Trough). The instrument consists of an all Teflon trough and movable Teflon ribbon (dam) barrier system which completely contains and defines a variable surface area. Surface area was varied through the use of a constant rate reversible 3-phase motor to drive the Teflon barrier. A Cahn 2000 electrobalance (Cahn Instruments, Cerittos, Calif.) with a sandblasted 1 cm platinum plate and stainless steel hangdown wire was employed to determine the surface tension at the liquid-air interface. The entire apparatus was situated in a thermostated incubator set at 45° C. Surface area-surface tension measurements were made by adding 950 ml of 0.15 M NaCl to the trough. Subphase temperature was controlled during the measurements at 36-38° C.
# For each experiment 27 ul of peptide/lipid admixture was applied in a random array of 13 (.congruent.2 ul) droplets to the surface of the temperature controlled subphase and allowed to spread spontaneously for 3 minutes. (The 27 ul application corresponds to 675 ug of phospholipid). The trough surface area was then cycled from a maximum (445 sq. cm) to a minimum (178 sq. cm) surface area and back to maximum at a cycling rate of 3 cycles/min (compression ratio 2.5:1). The dynamic surface tension vs surface area was recorded for 7 complete compression-expansion cycles for each application.
# [2] = Adsorption rate, King-Clements system (Wilhelmy balance, stirred Teflon dish); conditions: 10 ml of diluted sample (1:50) added under constant agitation to 70 ml saline subphase; 37° C.; total peptide 0.5 mg/ml
# Method: A procedure similar to that described by Notter, et al., Pediatric Res. 16, 515-519, (1982) was employed to determine the absorption rate in the absence of diffusion resistance. The modified Wilhelmy surface balance as described above was used. However, instead of using a Langmuir trough a round Teflon dish (5.1 cm diameter) was employed. The subphase, 70 ml of 0.15 M NaCl, was allowed to equilibrate to 37° C. in the incubator and was continuously stirred with a Teflon coated magnetic stirer. An aliquot of the peptide/lipid admixture containing 5 mg of total phospholipid was dispersed in 10 ml of 0.15 M NaCl by vortexing for 10 seconds. This dispersion was then added to the saline subphase. Surface tension lowering was monitored using a strip chart recorder connected to the electrobalance output and data collected for 20 minutes.
# [3] = Pulsating bubble surfactometer (PBS); conditions: after 100 cycles (5 minutes, 20 cycles/minute); phospholipid 1 mg/ml; 37° C.; […] NaCl; mean of triplicate
# Method: The PBS equipment (Electronetics, Buffalo, N.Y.) used was essentially equivalent to that described in detail by G. Enhorning, J. Appid. Physiol. 43, 198-203, (1977). Recordings were made of the pressure gradient across the wall of a small air bubble, communicating with ambient air by means of a narrow chimney stack, but otherwise entirely surrounded by a 40 ul volume of the peptide/lipid admixture. The admixture concentration employed for these studies was 1 mg/ml total phospholipid (0.02 mg/ml total peptide) and the diluent was 0.15 M NaCl. Immediately prior to loading the sample chamber, the diluted samples were sonicated for 15 seconds to remove any gas nuclei.
# The pressure drop across the air-water interface was measured during pulsation by a pressure transducer, and the corresponding surface tension determined through the application of Young's law and the Laplace equation. Measurements were all made at 37° C. and the bubble pulsed at 20 cycles/minute to render respectively a maximum (1.1. mm) and a minimum (0.8 mm) bubble diameter. (This compression/expansion corresponds to a 50% change in the surface area of the air-water interface).
Molecule,Equilibrum (equilibrium adsorption value) [1] [dynes/cm],Wilhelmy-Langmuir Trough Max (maximum dynamic surface tension) [1] [dynes/cm],Wilhelmy-Langmuir Trough Min (minimum dynamic surface tension) [1] [dynes/cm],King-Clements Adsorption (surface tension) [2] [dynes/cm],Surface Tension Values Maximum (pulsating bubble apparatus) [3] [dynes/cm],Surface Tension Values Minimum (pulsating bubble apparatus) [3] [dynes/cm]
"SPB (53-78): synthetic C-terminal SP-B fragment (YSVILLDTLLGRMLPQLVCRLVLRCS; ends and bridges not checked; cysteine pairing not given here; UniProt P07988 253-278, looked up, fragment)",40.0,49.3,0.1,45.0,55.5,4.9
B1,38.0,45.0,0.0,30.0,49.0,4.2
